T1: human CD25 (human, UniProt P01589 22-272)
T1 construct: In the functional assays it was native on T cells or SUDHL-1 cells; also called huCD25; hCD25
T1 sequence: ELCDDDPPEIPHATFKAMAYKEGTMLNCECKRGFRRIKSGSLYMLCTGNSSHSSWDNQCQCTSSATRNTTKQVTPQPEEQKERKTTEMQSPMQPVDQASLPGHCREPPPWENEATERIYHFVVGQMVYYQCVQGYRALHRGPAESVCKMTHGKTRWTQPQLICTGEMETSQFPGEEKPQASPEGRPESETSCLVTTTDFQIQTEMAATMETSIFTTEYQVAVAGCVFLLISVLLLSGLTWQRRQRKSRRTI


What follows are binders tested against T1, human CD25 (assay: flow cytometry on HEK293 cells transiently transfected with huCD25; 3-fold dilutions from 500 nM; detection with anti-human IgG (Fc specific) FITC).

Row | binding result | Binder
1 | binds | B01 (antibody, V domains shown, detected with anti-human IgG (Fc specific); also called anti-CD25 antibody B01) VH: QVQLVESGGGVVQPGRSLRLSCAASGFTFSNHAMAWVRQAPGKGLEWVAVISYDGSNKYYADSVKGRFTISRDNAKSTLYLQMNSLRAEDTAVYYCTTGLNSGYDWGQGTLVTVSS VL: DIQMTQSPSSLSASVGDRVTITCRASQNISSFLNWYQQKPGEAPRRLIYGTNSLQSGVPSRFSGSGSGTDYTLTISSLQPEDFATYYCQQYNSWPWTFGQGTKLEIK
2 | binds | H02 (antibody, V domains shown, detected with anti-human IgG (Fc specific); also called anti-CD25 antibody H02) VH: QVQLVESGGGVVQPGRSLRLSCAASGFTFSNHAMAWVRQAPGKGLEWVAVISYDGSNKYYRDSVKGRFTISRDNSQSTLYLQMNSLRAEDTAVYYCTTGLNSGYDWGQGTLVTVSS VL: DIQMTQSPSSLSASVGDRVTITCRASQNVSSFLNWYQQKPGEAPRRLIYGTNSLQSGVPSRFSGSGSGTDYTLTISSLQPEDFATYYCQQYNSWPWTFGQGTKLEIK
3 | binds | H07 (antibody, V domains shown, It was detected with anti-human IgG (Fc specific), and a human IgG1 isotype served as control; also called anti-CD25 antibody H07) VH: QVQLVESGGGVVQPGRSLRLSCAASGFTFSNHAMAWVRQAPGKGLEWVAVISYDGSNKYYADSVKGRFTISRDNAKNTLYLQMNSLRAEDTAVYYCTTGWNSGYDWGQGTLVTVSS VL: DIQMTQSPSSLSASVGDRVTITCRASQSVNSFLNWYQQKPGKAPRRLIYGTSSLQSGVPSRFSGSGSGTDYTLTISSLQPEDFATYYCQQYTSWPWTFGQGTKLEIK
4 | binds | H08 (antibody, V domains shown, detected with anti-human IgG (Fc specific); also called anti-CD25 antibody H08) VH: QVQLVESGGGVVQPGRSLRLSCAASGFTFSNHAMAWVRQAPGKGLEWVAVISYDGSNKYYADSVKGRFTISRDNSKNTLYLQMNSLRAEDTAVYYCTTGLNSGYDWGQGTLVTVSS VL: DIQMTQSPSSLSASVGDRVTITCRASQSVSSYLNWYQQKPGKAPRRLIYGTNSLQSGVPSRFSGSGSGTDYTLTISSLQPEDFATYYCQQYTSWPWTFGQGTKLEIK
5 | binds | G09 (antibody, V domains shown, detected with anti-human IgG (Fc specific); also called anti-CD25 antibody G09) VH: QVQLVESGGGVVQPGRSLRLSCAASGFTFSNHAMAWVRQAPGKGLEWVAVISYDGSNKYYRDSVKGRFTISRDNAQNTLYLQMNSLRAEDTAVYYCTTGLNSGYDWGQGTLVTVSS VL: DIQMTQSPSSLSASVGDRVTITCRASQNVSSFLNWYQQKPGEAPRRLIYGTNSLQSGVPSRFSGSGSGTDYTLTISSLQPEDFATYYCQQYNSWPWTFGQGTKLEIK
6 | binds | H01 (antibody, V domains shown, detected with anti-human IgG (Fc specific); also called anti-CD25 antibody H01) VH: QVQLVESGGGVVQPGRSLRLSCAASGFTFSNHAMAWVRQAPGKGLEWVAVISYDGSNKYYADSVKGRFTISRDNSQNTLYLQMNSLRAEDTAVYYCTTGLNSGYDWGQGTLVTVSS VL: DIQMTQSPSSLSASVGDRVTITCRASQNVSSFLNWYQQKPGKAPRRLIYGTSSLQSGVPSRFSGSGSGTDYTLTISSLQPEDFATYYCQQYTSWPWTFGQGTKLEIK

Source: patent publication US20240002522A1 (INSERM INSTITUT NATIONAL DE LA SANTE ET DE LA RECHERCHE …, published 2024)
